Laboratory results reported in patent publication US20200190168A1 (US Dept. of Health and Human Services, published 2020).

Columns and labels:
[1] = target: T1, gp350 B95-8 (2-425) D296R/I160R Avi-His (Epstein Barr Virus (B95-8), UniProt P03200 2-425); assay: flow cytometry staining of IgG+ B cells in human PBMCs, co-stained with anti-CD21
T1 construct: also called gp350 D296R/I160R probe

[2] = target: T2, gp350 B95-8 (2-425) D296R Avi-His (Epstein Barr Virus (B95-8), UniProt P03200 2-425); assay: as above
T2 construct: also called D296R gp350 probe; D296R mutant

[3] = target: gp350 B95-8 (2-425) D296R/P158R/I160R Avi-His (Epstein Barr Virus (B95-8), UniProt P03200 2-425); assay: biolayer interferometry (Octet), CR2-Ig on protein A biosensors
[4] = target: T1, gp350 B95-8 (2-425) D296R/I160R Avi-His; assay: as above
[5] = target: T3, gp350 B95-8 (2-425) D296R/P158N*/I160T Avi-His (Epstein Barr Virus (B95-8), UniProt P03200 2-425); assay: as above
T3 construct: also called D296R/P158N/I160T (glycan addition at 158)

[6] = target: gp350 B95-8 (2-425) D296R/P158R Avi-His (Epstein Barr Virus (B95-8), UniProt P03200 2-425); assay: as above

Binder	binding result [1]	binding result [2]	binding result [3]	binding result [4]	binding result [5]	binding result [6]
CR2 (complement receptor 2, CD21) on IgG+ B cells of human PBMCs (receptor, whole, on cells; also called gp350 receptor) ISCGSPPPILNGRISYYSTPIAVGTVIRYSCSGTFRLIGEKSLLCITKDKVDGTWDKPAPKCEYFNKYSSCPEPIVPGGYKIRGSTPYRHGDSVTFACKTNFSMNGNKSVWCQANNMWGPTRLPTCVSVFPLECPALPMIHNGHHTSENVGSIAPGLSVTYSCESGYLLVGEKIINCLSSGKWSAVPPTCEEARCKSLGRFPNGKVKEPPILRVGVTANFFCDEGYRLQGPPSSRCVIAGQGVAWTKMPVCEEIFCPSPPPILNGRHIGNSLANVSYGSIVTYTCDPDPEEGVNFILIGESTLRCTVDSQKTGTWSGPAPRCELSTSAVQCPHPQILRGRMVSGQKDRYTYNDTVIFACMFGFTLKGSKQIRCNAQGTWEPSAPVCEKECQAPPNILNGQKEDRHMVRFDPGTSIKYSCNPGYVLVGEESIQCTSEGVWTPPVPQCKVAACEATGRQLLTKPQHQFVRPDVNSSCGEGYKLSGSVYQECQGTIPWFMEIRLCKEITCPPPPVIYNGAHTGSSLEDFPYGTTVTYTCNPGPERGVEFSLIGESTIRCTSNDQERGTWSGPAPLCKLSLLAVQCSHVHIANGYKISGKEAPYFYNDTVTFKCYSGFTLKGSSQIRCKADNTWDPEIPVCEKETCQHVRQSLQELPAGSRVELVNTSCQDGYQLTGHAYQMCQDAENGIWFKKIPLCKVIHCHPPPVIVNGKHTGMMAENFLYGNEVSYECDQGFYLLGEKKLQCRSDSKGHGSWSGPSPQCLRSPPVTRCPNPEVKHGYKLNKTHSAYSHNDIVYVDCNPGFIMNGSRVIRCHTDNTWVPGVPTCIKKAFIGCPPPPKTPNGNHTGGNIARFSPGMSILYSCDQGYLLVGEALLLCTHEGTWSQPAPHCKEVNCSSPADMDGIQKGLEPRKMYQYGAVVTLECEDGYMLEGSPQSQCQSDHQWNPPLAVCRSRSLAPVLCGIAAGLILLTFLIVITLYVISKHRARNYYTDTSQKEAFHLEAREVYSVDPYNPAS	no binding	binds	–	–	–	–
CR2-Ig (chimeric molecule of CR2 SCR1-2 domain and IgG Fc region) (Fc fusion, domain: SCR1-2; not shown: IgG Fc region) ISCGSPPPILNGRISYYSTPIAVGTVIRYSCSGTFRLIGEKSLLCITKDKVDGTWDKPAPKCEYFNKYSSCPEPIVPGGYKIRGSTPYRHGDSVTFACKTNFSMNGNKSVWCQANNMWGPTRLPTCVSVFPLE	–	–	no binding	no binding	no binding	no binding
